From patent US20240376221A1
pKd: −log10 of the molar value.

Legend:
[1] = target: recombinant human OX40 (Acro Biosystems, cat. no. OXO-H5224) (human) (UniProt P43489); experiment: BLI cross-block; competitor (immobilized 1st Ab): IgG1-CD134-012
[2] = target: recombinant human OX40 (Acro Biosystems, cat. no. OXO-H5224) (human) (UniProt P43489); experiment: BLI cross-block; competitor (immobilized 1st Ab): IgG1-CD134-SF2
[3] = target: human OX40 with mouse CRD1 (human with mouse CRD1) (UniProt P43489); experiment: flow cytometry, ExpiCHO-S cells with human OX40 carrying mouse CRD1
[4] = target: recombinant human OX40 (Acro Biosystems, cat. no. OXO-H5224) (human) (UniProt P43489); experiment: BLI cross-block; competitor (immobilized 1st Ab): IgG1-CD134-GBR830
[5] = target: recombinant human OX40 (Acro Biosystems, cat. no. OXO-H5224) (human) (UniProt P43489); experiment: BLI cross-block; competitor (immobilized 1st Ab): IgG1-CD134-A4453
[6] = target: recombinant human OX40 (Acro Biosystems, cat. no. OXO-H5224) (human) (UniProt P43489); experiment: BLI cross-block; competitor (immobilized 1st Ab): IgG1-CD134-RG7888
[7] = target: recombinant cynomolgus monkey OX40 (Acro Biosystems, cat. no. OXO-C5220) (cynomolgus monkey); experiment: BLI, Ab on AHC sensor, OX40 analyte; * binding observed, less reliable fit
[8] = target: human OX40, cell surface-expressed (human) (UniProt P43489); experiment: flow cytometry, ExpiCHO-S cells with human OX40
[9] = target: recombinant human OX40 (Acro Biosystems, cat. no. OXO-H5224) (human) (UniProt P43489); experiment: BLI, Ab on AHC sensor, OX40 analyte
[10] = target: recombinant human OX40 (Acro Biosystems, cat. no. OXO-H5224) (human) (UniProt P43489); experiment: BLI cross-block; competitor (immobilized 1st Ab): IgG1-CD134-11D4
[11] = target: cynomolgus monkey OX40, cell surface-expressed (cynomolgus monkey); experiment: flow cytometry, HEK293F cells with cynomolgus monkey OX40
[12] = target: human OX40 with mouse CRD4 (human with mouse CRD4) (UniProt P43489); experiment: flow cytometry, ExpiCHO-S cells with human OX40 carrying mouse CRD4
[13] = target: recombinant human OX40 (Acro Biosystems, cat. no. OXO-H5224) (human) (UniProt P43489); experiment: BLI cross-block; competitor (immobilized 1st Ab): IgG1-CD134-IBI101
[14] = target: recombinant human OX40 (Acro Biosystems, cat. no. OXO-H5224) (human) (UniProt P43489); experiment: BLI cross-block; competitor (immobilized 1st Ab): IgG1-CD134-ABBV368
[15] = target: recombinant human OX40 (Acro Biosystems, cat. no. OXO-H5224) (human) (UniProt P43489); experiment: BLI cross-block; competitor (immobilized 1st Ab): IgG1-CD134-003-HC6LC2-RR
[16] = target: recombinant human OX40 (Acro Biosystems, cat. no. OXO-H5224) (human) (UniProt P43489); experiment: BLI cross-block; competitor (immobilized 1st Ab): IgG1-CD134-49B4-RRE
[17] = target: human OX40, cell surface-expressed (human) (UniProt P43489); experiment: flow cytometry, HEK293F cells with human OX40
[18] = target: recombinant human OX40 (Acro Biosystems, cat. no. OXO-H5224) (human) (UniProt P43489); experiment: BLI cross-block; competitor (immobilized 1st Ab): IgG1-CD134-007
[19] = target: recombinant human OX40 (Acro Biosystems, cat. no. OXO-H5224) (human) (UniProt P43489); experiment: BLI cross-block; competitor (immobilized 1st Ab): IgG1-CD134-003
[20] = target: recombinant human OX40 (Acro Biosystems, cat. no. OXO-H5224) (human) (UniProt P43489); experiment: BLI cross-block; competitor (immobilized 1st Ab): IgG1-CD134-MEDI0562
[21] = target: recombinant human OX40 (Acro Biosystems, cat. no. OXO-H5224) (human) (UniProt P43489); experiment: BLI cross-block; competitor (immobilized 1st Ab): IgG1-CD134-h3C8
[22] = target: recombinant human OX40 (Acro Biosystems, cat. no. OXO-H5224) (human) (UniProt P43489); experiment: BLI cross-block; competitor (immobilized 1st Ab): IgG1-CD134-Hu106
[23] = target: recombinant human OX40 (Acro Biosystems, cat. no. OXO-H5224) (human) (UniProt P43489); experiment: BLI cross-block; competitor (immobilized 1st Ab): IgG1-CD134-INCAGN1949
[24] = target: human OX40 with mouse CRD3 (human with mouse CRD3) (UniProt P43489); experiment: flow cytometry, ExpiCHO-S cells with human OX40 carrying mouse CRD3
[25] = target: human OX40, cell surface-expressed (human) (UniProt P43489); experiment: flow cytometry, activated CD8+ T cells, donor 2
[26] = target: human OX40, cell surface-expressed (human) (UniProt P43489); experiment: flow cytometry, activated CD4+ T cells, donor 2
[27] = target: human OX40, cell surface-expressed (human) (UniProt P43489); experiment: flow cytometry, activated CD4+ T cells, donor 1
[28] = target: human OX40, cell surface-expressed (human) (UniProt P43489); experiment: flow cytometry, activated CD4+ T cells, mean of 3 donors
[29] = target: human OX40, cell surface-expressed (human) (UniProt P43489); experiment: flow cytometry, activated CD4+ T cells, donor 3
[30] = target: human OX40, cell surface-expressed (human) (UniProt P43489); experiment: flow cytometry, activated CD8+ T cells, donor 1
[31] = target: human OX40, cell surface-expressed (human) (UniProt P43489); experiment: flow cytometry, activated CD8+ T cells, mean of 3 donors
[32] = target: human OX40, cell surface-expressed (human) (UniProt P43489); experiment: flow cytometry, activated CD8+ T cells, donor 3
[33] = target: human FcγRIa, cell surface-expressed (human) (UniProt P12314); experiment: flow cytometry, ExpiCHO-S cells transfected with human FcγRIa
[34] = target: His-tagged human recombinant FcγRIa (human) (UniProt P12314); experiment: SPR, His-tagged FcγRIa captured on an anti-His chip, antibody injected
Chain of His-tagged human recombinant FcγRIa (human) (P12314 16-288 limits assumed): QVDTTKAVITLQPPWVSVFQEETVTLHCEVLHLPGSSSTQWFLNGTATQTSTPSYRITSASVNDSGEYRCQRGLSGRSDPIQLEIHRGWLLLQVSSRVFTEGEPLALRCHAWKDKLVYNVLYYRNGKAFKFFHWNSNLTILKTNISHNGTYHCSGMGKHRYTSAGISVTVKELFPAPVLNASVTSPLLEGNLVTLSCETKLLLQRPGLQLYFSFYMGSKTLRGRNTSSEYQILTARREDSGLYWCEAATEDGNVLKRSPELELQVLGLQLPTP

Chain of human OX40, cell surface-expressed (human) (P43489 29-277): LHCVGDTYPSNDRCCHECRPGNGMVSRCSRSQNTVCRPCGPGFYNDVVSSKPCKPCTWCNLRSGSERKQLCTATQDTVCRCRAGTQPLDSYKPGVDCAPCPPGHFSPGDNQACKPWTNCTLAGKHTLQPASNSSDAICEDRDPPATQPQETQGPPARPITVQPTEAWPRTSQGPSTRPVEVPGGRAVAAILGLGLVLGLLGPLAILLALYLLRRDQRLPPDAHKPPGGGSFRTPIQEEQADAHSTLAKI
Chain of recombinant cynomolgus monkey OX40 (Acro Biosystems, cat. no. OXO-C5220) (cynomolgus monkey) (P43489 other isoform, or with tags, fused parts or gaps limits assumed): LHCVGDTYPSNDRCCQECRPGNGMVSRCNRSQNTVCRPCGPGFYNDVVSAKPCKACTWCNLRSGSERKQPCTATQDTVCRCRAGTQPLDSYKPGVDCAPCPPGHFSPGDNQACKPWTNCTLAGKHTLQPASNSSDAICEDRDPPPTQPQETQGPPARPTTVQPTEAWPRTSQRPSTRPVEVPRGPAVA
Chain of IgG1-CD134-IBI101 (antibody) (VH): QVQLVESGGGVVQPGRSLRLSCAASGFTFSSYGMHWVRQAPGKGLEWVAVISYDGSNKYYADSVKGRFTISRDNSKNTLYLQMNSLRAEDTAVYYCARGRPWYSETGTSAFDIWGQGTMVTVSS
Chain of IgG1-CD134-IBI101 (antibody) (VL): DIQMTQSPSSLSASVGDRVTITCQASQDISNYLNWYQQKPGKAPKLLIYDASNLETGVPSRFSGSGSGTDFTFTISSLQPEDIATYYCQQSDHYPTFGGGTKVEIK
Chain of human OX40 with mouse CRD1 (human with mouse CRD1) (P43489 other isoform, or with tags, fused parts or gaps limits assumed): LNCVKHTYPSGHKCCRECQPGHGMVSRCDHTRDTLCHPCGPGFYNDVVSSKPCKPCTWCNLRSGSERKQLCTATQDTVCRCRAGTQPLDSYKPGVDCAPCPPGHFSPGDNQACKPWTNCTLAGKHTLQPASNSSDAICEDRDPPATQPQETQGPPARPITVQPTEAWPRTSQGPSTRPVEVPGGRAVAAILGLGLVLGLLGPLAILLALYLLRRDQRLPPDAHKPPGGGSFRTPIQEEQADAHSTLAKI
Chain of recombinant human OX40 (Acro Biosystems, cat. no. OXO-H5224) (human) (P43489 29-216 limits assumed): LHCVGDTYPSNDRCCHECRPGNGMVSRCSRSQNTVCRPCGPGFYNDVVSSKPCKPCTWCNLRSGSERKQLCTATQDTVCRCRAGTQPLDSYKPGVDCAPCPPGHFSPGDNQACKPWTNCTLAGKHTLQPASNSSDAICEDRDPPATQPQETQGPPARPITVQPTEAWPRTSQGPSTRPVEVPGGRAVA
Chain of cynomolgus monkey OX40, cell surface-expressed (cynomolgus monkey) (P43489 other isoform, or with tags, fused parts or gaps limits assumed): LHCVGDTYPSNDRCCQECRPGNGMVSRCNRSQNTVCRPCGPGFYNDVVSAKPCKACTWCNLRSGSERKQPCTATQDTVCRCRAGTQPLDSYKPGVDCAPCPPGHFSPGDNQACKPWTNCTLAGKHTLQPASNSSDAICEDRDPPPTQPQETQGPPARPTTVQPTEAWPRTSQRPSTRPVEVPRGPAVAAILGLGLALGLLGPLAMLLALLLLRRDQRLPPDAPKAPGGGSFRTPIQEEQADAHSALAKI
Chain of human OX40 with mouse CRD4 (human with mouse CRD4) (P43489 other isoform, or with tags, fused parts or gaps limits assumed): as the sequence (P43489 29-277) above, with D109N, A122S, H125Q, L127R, Q128H, N132D, S134L, I137V counted along it
Chain of human OX40 with mouse CRD3 (human with mouse CRD3) (P43489 other isoform, or with tags, fused parts or gaps limits assumed): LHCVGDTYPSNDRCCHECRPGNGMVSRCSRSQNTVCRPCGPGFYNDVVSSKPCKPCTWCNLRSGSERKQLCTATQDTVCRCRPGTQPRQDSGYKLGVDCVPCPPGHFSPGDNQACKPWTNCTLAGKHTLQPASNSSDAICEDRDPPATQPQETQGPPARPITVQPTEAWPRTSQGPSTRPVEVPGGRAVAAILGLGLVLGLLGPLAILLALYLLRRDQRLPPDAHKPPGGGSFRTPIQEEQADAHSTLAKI
Chain of human FcγRIa, cell surface-expressed (human) (P12314 16-374): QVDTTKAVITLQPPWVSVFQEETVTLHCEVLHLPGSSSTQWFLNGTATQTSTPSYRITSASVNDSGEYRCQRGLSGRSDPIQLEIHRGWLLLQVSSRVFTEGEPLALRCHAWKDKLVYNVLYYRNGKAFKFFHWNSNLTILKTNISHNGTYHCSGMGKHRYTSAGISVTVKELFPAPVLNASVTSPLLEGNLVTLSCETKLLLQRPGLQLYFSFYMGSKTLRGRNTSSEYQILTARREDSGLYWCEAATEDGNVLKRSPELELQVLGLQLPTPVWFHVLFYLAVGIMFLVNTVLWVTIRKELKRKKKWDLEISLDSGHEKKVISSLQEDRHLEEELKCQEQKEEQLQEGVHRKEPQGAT

| corrected association response [1] | corrected association response [2] | EC50 (read off the curve) [3] | corrected association response [4] | corrected association response [5] | corrected association response [6] | pKd [7] | pKd [9] | corrected association response [10] | EC50 (read off the curve) [11] | corrected association response [13] | corrected association response [14] | corrected association response [15] | corrected association response [16] | EC50 (read off the curve) [17] | corrected association response [18] | corrected association response [19] | corrected association response [20] | corrected association response [21] | corrected association response [22] | Substance | further results |
| --- | --- | --- | --- | --- | --- | --- | --- | --- | --- | --- | --- | --- | --- | --- | --- | --- | --- | --- | --- | --- | --- |
| 0.8 nm | 0.03 nm | 0.06 µg/mL | 0.01 nm | 0.29 nm | 0.02 nm | 6.62 | 8.03 | 0.13 nm | 0.06 µg/mL | 0.01 nm | -0.01 nm | 1.39 nm | -0.01 nm | 0.08 µg/mL | 0.05 nm | 1.06 nm | 0.31 nm | 0.01 nm | 0.05 nm | IgG1-CD134-Hu106 (antibody) | koff [7]: 0.029 s⁻¹; kon [7]: 120000 M⁻¹ s⁻¹; EC50 (read off the curve) [8]: 0.05 µg/mL; koff [9]: 0.0024 s⁻¹; kon [9]: 260000 M⁻¹ s⁻¹; EC50 (read off the curve) [12]: 0.06 µg/mL; corrected association response [23]: 0 nm; EC50 (read off the curve) [24]: 0.06 µg/mL |
| 0.82 nm | 0.07 nm | 0.08 µg/mL | 0.01 nm | 0.24 nm | 0.31 nm | 6.40 | 7.28 | 0.15 nm | 0.08 µg/mL | 0.01 nm | -0.02 nm | 1.23 nm | 0 nm | 0.09 µg/mL | 0.02 nm | 0.74 nm | 0.26 nm | -0.03 nm | -0.02 nm | IgG1-CD134-IBI101 (antibody) | EC50 [25]: 1.86 µg/mL; EC50 [26]: 0.1 µg/mL; EC50 [27]: 0.101 µg/mL; EC50 [28]: 0.104 µg/mL; EC50 [29]: 0.111 µg/mL; EC50 [30]: 0.128 µg/mL; corrected association response [23]: 0.02 nm; EC50 [31]: 0.727 µg/mL; EC50 [32]: 0.192 µg/mL; EC50 (read off the curve) [24]: 0.06 µg/mL |
| 0.73 nm | 0.02 nm | 0.08 µg/mL | 0.01 nm | 0.25 nm | 0.01 nm | 6.64 | 6.80 | 0.11 nm | 0.1 µg/mL | 0.01 nm | -0.03 nm | 1.74 nm | 0 nm | 0.06 µg/mL | 0.55 nm | 1.39 nm | 0.01 nm | -0.02 nm | -0.01 nm | IgG1-CD134-INCAGN1949 (antibody) | EC50 (read off the curve) [8]: 0.07 µg/mL; EC50 (read off the curve) [12]: 0.08 µg/mL; corrected association response [23]: 0 nm |
| – | – | – | – | – | – | – | – | – | – | – | – | – | – | – | – | – | – | – | – | IgG1-CD134-RG7888-K322A-E345R (antibody) | EC50 (read off the curve) [33]: 0.6 µg/mL; EC50 (read off the curve) [34]: 30 nM |
